From article PMC11061236, “Structure-function analysis of plant G-protein regulatory mechanisms identifies key Gα-RGS protein interactions” (The Journal of Biological Chemistry, 2024) come the findings set out here.

For assay [1], the target named is RGS domain of Selaginella moellendorffii RGS (SmRGS), wild-type (Selaginella moellendorffii). Briefly: ITC; SmGPA (syringe) injected into SmRGS (cell), 10:1; 20 °C; 50 mM Tris·HCl pH 8.0, 100 mM NaCl, 5 mM MgCl2, 100 mM GDP, 30 mM AlCl3, 20 mM NaF, 2 mM TCEP, 5% glycerol (GDP·Mg2+·AlF4- form that mimics the GTP-bound form); one-site model.
Assay [2] addresses T1, OsRGA1 (Oryza sativa, UniProt A2Y3B5).
T1 construct: gene GPA1; full-length cDNA in pET-28a, N-terminal His6, E. coli BL21(DE3); tag cut with thrombin for crystals; four monomers in asymmetric unit, modelled within residues 39-375
Briefly: X-ray crystal structure, […] Å. The note with it: Mg2+; co-crystallised with 5 mM GDP, 4 °C; nucleotide site between Ras-like and helical domains. The format is binding.

Assay [3] addresses SmRGS E355A (Selaginella moellendorffii). The assay is described as follows: ITC; SmGPA (syringe) injected into SmRGS (cell), 10:1; 20 °C; 50 mM Tris·HCl pH 8.0, 100 mM NaCl, 5 mM MgCl2, 100 mM GDP, 30 mM AlCl3, 20 mM NaF, 2 mM TCEP, 5% glycerol (GDP·Mg2+·AlF4- form that mimics the GTP-bound form); one-site model.
Assay [4] concerns the target SmRGS E313A (Selaginella moellendorffii). Described as above.
Assay [5] concerns the target SmRGS N357A (Selaginella moellendorffii). The assay is described as above.

T1 sequence (A2Y3B5 whole entry, the tested form may be a part): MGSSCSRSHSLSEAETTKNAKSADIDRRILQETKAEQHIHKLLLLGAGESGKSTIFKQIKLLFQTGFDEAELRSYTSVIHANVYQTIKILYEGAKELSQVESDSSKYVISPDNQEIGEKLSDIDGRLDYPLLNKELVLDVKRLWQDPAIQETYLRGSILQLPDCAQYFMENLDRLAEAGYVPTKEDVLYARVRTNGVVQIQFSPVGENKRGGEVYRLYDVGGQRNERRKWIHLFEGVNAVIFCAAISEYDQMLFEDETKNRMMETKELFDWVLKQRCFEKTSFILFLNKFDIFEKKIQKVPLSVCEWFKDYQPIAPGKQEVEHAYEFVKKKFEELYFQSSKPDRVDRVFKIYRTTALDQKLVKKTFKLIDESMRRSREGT

Turning to SmGPA D125A (natural protein), in assay [1], the Kd was 86 nM and the dH is -6.53 kcal/mol.
`Nc1nc2c(ncn2[C@@H]2O[C@H](COP(=O)(O)OP(=O)(O)O)[C@@H](O)[C@H]2O)c(=O)[nH]1` [GDP]: the “X-ray crystal structure, 2.99 Å” value in assay [2] was “interactions with the guanine ring and ribose of GDP are comparable to GTPγS bound in SmGPA”.
Consider SmGPA V189A (natural protein), for which, in assay [1], the Kd was determined as 130 nM and the dH was -2.89 kcal/mol.
The like results for SmGPA Q214A (natural protein) were, in that order, 270 nM and -5.3 kcal/mol.
The like results for SmGPA R219A (natural protein) were, in that order, 1960 nM and -6.29 kcal/mol.
The like results for SmGPA F245A (natural protein) were, in that order, 16900 nM and 3.1 kcal/mol.
Regarding SmGPA E246A (natural protein), in assay [1], the Kd turned out to be 18400 nM and the dH is -2.73 kcal/mol.
For SmGPA Y126A (natural protein) the same measures were 59 nM and -7.45 kcal/mol.
In the case of “Selaginella moellendorffii Gα (SmGPA), wild-type (natural protein)”, the Kd in assay [3] was found to be 16 nM; in assay [4], 1050 nM; in assay [1], 23 nM; in assay [5], 6770 nM. The dH is -7.04 kcal/mol in assay [3], -3.74 kcal/mol in assay [4], -3.07 kcal/mol in assay [1] and -4.36 kcal/mol in assay [5].
For SmGPA N216A (natural protein), in assay [1], the Kd stood at 55 nM and the dH is -4.81 kcal/mol.
